Results as given in patent US20150374848A1, “Methods for the Treatment of Head and Neck Squamous Cell Carcinoma” (Vigilant Biosciences, Inc., priority 2010, published 2015).
“Also recorded” adds a separate entry of the source.

Tests used:
[1] = target: CD44 as expressed on human HNSCC cell lines (T.Tn, SCC-15, Detroit-562, CAL 27) (human) (UniProt P16070); assay: flow cytometry on CAL 27 cells, antibody at 20 ug/mL, duplicate samples
T.Tn HNSCC cell line = assay: FACS binding to HNSCC cell line T.Tn; design: species or system human; details: antibody 20 μg/mL on ice 30 minutes
Experimental: (§1) The binding of chPTA-4621 and huPTA-4621 to HNSCC cell lines T.Tn, SCC-15, and Detroit-562 was assessed by flow cytometry (FACS). Cells were prepared for FACS by initially washing the cell monolayer with DPBS (without Ca^++ and Mg^++). Cell dissociation buffer (INVITROGEN, Burlington, ON; for T.Tn, SCC-15 and Detroit-562) was then used to dislodge the cells from their cell culture plates at 37° C. After centrifugation and collection, the cells were resuspended in DPBS containing MgCl2, CaCl2, and 2 percent fetal bovine serum at 4° C. (staining media) and counted, aliquoted to appropriate cell density, spun down to pellet the cells and resuspended in staining media at 4° C. in the presence of test antibodies (chimeric or humanized PTA-4621) or control antibodies (isotype control, anti-EGFR (C225; T.Tn, SCC-15 and Detroit-562). Isotype control and test antibodies were assessed at 20 μg/mL on ice for 30 minutes. For detection of bound antibody, an Alexa Fluor 546 conjugated secondary antibody was used. Prior to the addition of the secondary antibody, the cells were washed once with staining media. The secondary antibody in staining media was then added according to manufacturer's directions. […] Flow cytometric acquisition of the T.Tn, SCC-15 and Detroit-562 cells was assessed by running samples on a FACScan using the CellQuest software (BD Biosciences, Oakville, ON). […]

T.Tn HNSCC xenograft = assay: established T.Tn HNSCC xenograft model; assay type: in vivo; details: 20 mg/kg i.p. three times per week
Experimental: With reference to FIGS. 2 and 3, 6 to 8 week old female SCID mice were implanted with 10 million T.Tn cells in 100 microliters PBS solution injected subcutaneously in the right flank. The mice were randomly divided into 2 treatment groups of 10. When the average tumor volume of the mice reached approximately 264-268 mm^3, 20 mg/kg of chPTA-4621 test antibody or buffer control was administered intraperitoneally to each cohort in a volume of 300 microliters after dilution from the stock concentration with a diluent that contained 2.7 mM KCl, 1 mM KH2PO4, 137 mM NaCl and 20 mM Na2HPO4. The antibody and control samples were then administered three times per week for the duration of the study. Tumor growth was measured about every 7 days with calipers. The study was completed after ten doses of antibody. Body weights of the animals were recorded once per week for the duration of the study. At the end of the study all animals were euthanized according to CCAC guidelines.

[2] = test system: Detroit-562 HNSCC cell line; assay: FACS binding to HNSCC cell line Detroit-562; design: species or system human; details: antibody 20 μg/mL on ice 30 minutes
Experimental: as §1

SCC-15 HNSCC cell line = assay: FACS binding to HNSCC cell line SCC-15; design: species or system human; details: antibody 20 μg/mL on ice 30 minutes
Experimental: as §1

[3] = test system: human breast cancer, liver cancer and prostate cancer xenografts; details: preventative and established models; cited from earlier work

Humanized PTA-4621 (RO5429083) (antibody)
fold binding compared to the humanized IgG1 isotype control [1]: 37 fold

B1: chPTA-4621: chimeric PTA-4621 comprising VH and VL domains of SEQ ID NO:1 and SEQ ID NO:2 (antibody, V domains shown)
VH: EVKLLESGGGLVQPGGSLKLSCATSGFDFSRYWMSWVRQAPGKGLEWIGEVNPDSTSINYTPSLKDQFIISRDNAKNTLDLQMSKVSSEDTALYYCTRPNYYGSRYHYYAMDYWGQGTSVTVSS
VL: DIQMTQTTSSLSVSLGDRVTINCRASQDINNYLNWYQQKPDGTVKLLIYYTSRLHSGVPSRFSGSGSGTDFSLTISNLEKEDVATYFCQQGSTLPFTFGSGTKLEIK
modifications: human constant regions without entry; Synthetically generated peptide
binding to T.Tn cell line (FACS) (T.Tn HNSCC cell line): bind | clinical signs of toxicity / tolerability (T.Tn HNSCC xenograft): no clinical signs of toxicity; also recorded: well-tolerated | mean body weight between the groups at end of treatment period (T.Tn HNSCC xenograft): no significant difference | reduction of tumor growth compared to buffer treated group (T.Tn HNSCC xenograft; ten doses, day 105, p=0.0068): 54.9% | binding to Detroit-562 cell line (FACS) [2]: bind | binding to SCC-15 cell line (FACS) (SCC-15 HNSCC cell line): bind

B2: PTA-4621: murine monoclonal anti-CD44 antibody produced by hybridoma ATCC PTA-4621; VH SEQ ID NO:1, VL SEQ ID NO:2 (antibody, V domains shown)
VH: EVKLLESGGGLVQPGGSLKLSCATSGFDFSRYWMSWVRQAPGKGLEWIGEVNPDSTSINYTPSLKDQFIISRDNAKNTLDLQMSKVSSEDTALYYCTRPNYYGSRYHYYAMDYWGQGTSVTVSS
VL: DIQMTQTTSSLSVSLGDRVTINCRASQDINNYLNWYQQKPDGTVKLLIYYTSRLHSGVPSRFSGSGSGTDFSLTISNLEKEDVATYFCQQGSTLPFTFGSGTKLEIK
modifications: Synthetically generated peptide
anti-tumor effects in pre-clinical xenograft models [3]: significant anti-tumor effects
